The text below walks through data of publication PMC7734321, “Lesion Recognition and Cleavage of Damage-Containing Quadruplexes and Bulged Structures by DNA Glycosylases”.

For data set [1], the target named is T1, OGG1 (8-oxoguanine-DNA glycosylase) (Homo sapiens, UniProt O15527 1-345). Kind of data set: MST; MST: 50 mM Tris-HCl pH 7.5, 50 mM KCl, 1 mM EDTA, 1 mM DTT, 7% glycerol, 25 C, 10 min, 0.5 uM DNA; authors call Kd values estimates only. Conditions: protein: recombinant.
Data set [2] concerns the target T2, Fpg (formamidopyrimidine-DNA glycosylase) (Escherichia coli, UniProt P05523 2-269).
T2 sequence: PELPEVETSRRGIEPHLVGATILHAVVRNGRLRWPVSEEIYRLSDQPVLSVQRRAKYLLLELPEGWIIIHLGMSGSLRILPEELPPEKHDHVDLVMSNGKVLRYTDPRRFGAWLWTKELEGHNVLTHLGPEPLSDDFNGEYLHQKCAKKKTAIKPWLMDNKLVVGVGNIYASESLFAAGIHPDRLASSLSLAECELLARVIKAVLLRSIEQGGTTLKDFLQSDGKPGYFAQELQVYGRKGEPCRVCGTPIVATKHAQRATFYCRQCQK
The description is as above. The note with it: protein: recombinant, tags: none (native form without tags).

The target of data set [3] is NEIL1 (endonuclease VIII-like 1) (Homo sapiens, UniProt Q96FI4 2-390). The description is as above. Conditions: protein: recombinant.
In the next data set the target is T3, NTH1 (endonuclease III) (Homo sapiens, UniProt P78549 1-304).
T3 sequence: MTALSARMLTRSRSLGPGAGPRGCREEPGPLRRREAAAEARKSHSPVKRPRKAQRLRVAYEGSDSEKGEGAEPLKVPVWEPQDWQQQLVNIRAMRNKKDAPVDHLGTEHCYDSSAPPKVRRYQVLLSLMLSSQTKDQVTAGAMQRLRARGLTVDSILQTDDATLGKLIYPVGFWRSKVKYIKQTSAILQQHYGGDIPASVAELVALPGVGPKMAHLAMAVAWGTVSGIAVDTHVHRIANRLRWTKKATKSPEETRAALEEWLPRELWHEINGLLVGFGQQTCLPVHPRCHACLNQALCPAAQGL
The description is as above. Conditions: protein: recombinant.

In the next data set the target is T4, Nei (endonuclease VIII) (Escherichia coli, UniProt P50465 2-263).
T4 sequence: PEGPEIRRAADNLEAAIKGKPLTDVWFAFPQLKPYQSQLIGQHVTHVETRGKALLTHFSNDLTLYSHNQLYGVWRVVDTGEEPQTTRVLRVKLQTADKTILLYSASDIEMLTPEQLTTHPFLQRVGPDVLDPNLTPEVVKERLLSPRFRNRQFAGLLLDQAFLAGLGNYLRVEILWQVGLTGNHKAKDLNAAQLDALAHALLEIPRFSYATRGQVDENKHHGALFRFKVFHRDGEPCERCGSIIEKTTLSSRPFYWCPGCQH
The description is as above. The note with it: protein: recombinant, tags: none (native form without tags).

For data set [4], the target named is T1, OGG1 (8-oxoguanine-DNA glycosylase). Put plainly: stopped-flow FRET; DNA bending phase before cleavage; MST: 50 mM Tris-HCl pH 7.5, 50 mM KCl, 1 mM EDTA, 1 mM DTT, 7% glycerol, 25 C, 10 min, 0.5 uM DNA; authors call Kd values estimates only. The note with it: protein: recombinant; label: 5'-FAM on strand 1; blunt.
Data set [5] concerns the target T2, Fpg (formamidopyrimidine-DNA …). The description is as above. The note with it: protein: recombinant; tags: none (native form without tags); label: 5'-FAM on strand 1; blunt.
The mark [6] stands for this setting: label: 5'-FAM, 3'-BHQ1, G-quadruplex.
Where [7] appears, read: label: 5'-FAM on strand 2, blunt.

Sequence of NEIL1 (endonuclease VIII-like 1) (Q96FI4 2-390): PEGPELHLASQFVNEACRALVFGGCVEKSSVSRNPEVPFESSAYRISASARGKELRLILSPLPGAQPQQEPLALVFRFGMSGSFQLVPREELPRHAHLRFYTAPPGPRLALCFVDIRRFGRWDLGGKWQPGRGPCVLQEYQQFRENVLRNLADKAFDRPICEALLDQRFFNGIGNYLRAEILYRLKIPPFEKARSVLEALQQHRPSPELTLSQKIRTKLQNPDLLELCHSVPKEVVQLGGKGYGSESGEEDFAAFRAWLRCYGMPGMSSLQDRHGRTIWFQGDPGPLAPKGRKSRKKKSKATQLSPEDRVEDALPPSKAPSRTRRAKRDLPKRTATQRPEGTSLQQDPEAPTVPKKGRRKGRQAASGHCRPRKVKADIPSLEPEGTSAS
T1 sequence (O15527 whole entry): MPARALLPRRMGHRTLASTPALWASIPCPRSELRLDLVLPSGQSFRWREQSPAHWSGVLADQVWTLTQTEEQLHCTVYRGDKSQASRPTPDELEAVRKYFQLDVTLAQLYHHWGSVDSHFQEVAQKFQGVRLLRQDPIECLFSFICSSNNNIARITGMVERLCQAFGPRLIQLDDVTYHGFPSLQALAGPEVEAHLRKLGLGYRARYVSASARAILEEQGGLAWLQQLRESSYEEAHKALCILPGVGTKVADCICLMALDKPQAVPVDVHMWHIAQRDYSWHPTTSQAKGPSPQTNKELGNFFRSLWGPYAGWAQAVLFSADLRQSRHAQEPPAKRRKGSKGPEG

As a reminder, the Kd is the concentration at which binding is half-saturated. Take TTAGGGTTAGGGTTAGGGTTAGGGTT (structured_DNA, G17 = 8-oxoguanine) [Q4-oxoG]: the Kd is 1200 ± 300 nM in data set [1] (setting [6]) and 1200 ± 400 nM in data set [2] (setting [6]).

B1: C/G (dsDNA)
DNA 1: GCTCACGTACAGAGCTG
DNA 2: CAGCTCTGTACGTGAGC
With B1, the Kd was 17000 ± 15000 nM in data set [3] (setting [7]); 1400 ± 500 nM in data set [1] (setting [7]); 1600 ± 1100 nM in data set [2] (setting [7]); 700 ± 400 nM with NTH1 (endonuclease III) (setting [7]); 3100 ± 700 nM with Nei (endonuclease VIII) (setting [7]).

B2: Type I oxoG/C (dsDNA)
DNA 1: GCTCAGGTACAGAGCTG
DNA 2: CAGCTCTGTACCTGAGC
modifications: G6 of strand 1 = 8-oxoguanine, opposite C
Take B2: the binding result in data set [4] and in data set [5] was “binds” in each case.

Turning to TTAGGGTTAGGGTTAGGGTTAGGGTT (structured_DNA, T14 = thymine glycol) [Q4-Tg], the Kd was 9100 ± 3000 nM in data set [3] (setting [6]), 1300 ± 300 nM with NTH1 (endonuclease III) (setting [6]) and 800 ± 200 nM in the data set with Nei (endonuclease VIII) (setting [6]).

TTAGGGTTAGGGTTAGGGTTAGGGTT (structured_DNA) [Q4]: the Kd is 3400 ± 500 nM in data set [3] (G-quadruplex); 700 ± 200 nM in data set [1] (G-quadruplex); 1000 ± 300 nM in data set [2] (G-quadruplex); 2500 ± 800 nM with NTH1 (endonuclease III) (G-quadruplex); 900 ± 200 nM with Nei (endonuclease VIII) (G-quadruplex).
